Values of other authors in publication PMC11987431.

Target: IL-6 receptor (Rattus norvegicus) (UniProt P22273)
UniProt P22273, sequence (P22273 20-364, chain 1 of 2): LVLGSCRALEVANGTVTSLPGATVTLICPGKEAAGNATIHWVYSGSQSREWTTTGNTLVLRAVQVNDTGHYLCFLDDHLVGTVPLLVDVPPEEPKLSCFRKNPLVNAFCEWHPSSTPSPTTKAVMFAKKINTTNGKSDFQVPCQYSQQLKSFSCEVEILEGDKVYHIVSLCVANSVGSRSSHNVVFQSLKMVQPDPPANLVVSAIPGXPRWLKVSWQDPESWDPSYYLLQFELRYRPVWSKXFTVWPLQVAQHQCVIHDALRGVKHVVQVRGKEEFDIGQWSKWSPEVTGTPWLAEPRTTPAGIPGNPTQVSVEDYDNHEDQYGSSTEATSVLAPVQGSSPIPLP
UniProt P22273, sequence (P40190 23-618, chain 2 of 2, further chain): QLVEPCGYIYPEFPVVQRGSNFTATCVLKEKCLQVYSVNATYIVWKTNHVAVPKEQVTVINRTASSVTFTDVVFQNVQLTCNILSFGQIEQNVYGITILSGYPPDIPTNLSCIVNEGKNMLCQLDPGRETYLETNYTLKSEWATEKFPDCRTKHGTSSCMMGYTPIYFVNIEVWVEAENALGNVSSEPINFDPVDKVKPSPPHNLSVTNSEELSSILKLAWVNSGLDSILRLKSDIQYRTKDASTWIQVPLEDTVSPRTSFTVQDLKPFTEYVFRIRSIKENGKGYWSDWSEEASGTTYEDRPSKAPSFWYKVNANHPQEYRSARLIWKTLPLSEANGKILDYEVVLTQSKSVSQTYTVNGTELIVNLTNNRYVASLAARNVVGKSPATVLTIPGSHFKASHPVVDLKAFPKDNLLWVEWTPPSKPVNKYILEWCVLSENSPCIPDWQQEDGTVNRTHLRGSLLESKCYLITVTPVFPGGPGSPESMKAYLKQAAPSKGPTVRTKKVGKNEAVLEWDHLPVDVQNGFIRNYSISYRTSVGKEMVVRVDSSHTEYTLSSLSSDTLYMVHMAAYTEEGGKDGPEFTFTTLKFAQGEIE

IL-6, sequence (P20607 25-211): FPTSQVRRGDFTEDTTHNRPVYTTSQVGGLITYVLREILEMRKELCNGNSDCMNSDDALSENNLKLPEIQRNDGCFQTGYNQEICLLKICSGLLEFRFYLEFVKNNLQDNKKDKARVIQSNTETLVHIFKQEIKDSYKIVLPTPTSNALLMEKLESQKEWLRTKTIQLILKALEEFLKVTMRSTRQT

Kd: 0.015 nM
Substance: IL-6 (from UniProt P20607)
